Reference: US20150344570A1 (published 2015)

T1: FcγRIIb (human, UniProt P31994 43-217)
T1 construct: extracellular domain; Soluble extracellular domain with C-terminal His tag, used as analyte; also called FcgRIIb; CD32B; not shown: His tag at the C terminus
T1 sequence (looked up): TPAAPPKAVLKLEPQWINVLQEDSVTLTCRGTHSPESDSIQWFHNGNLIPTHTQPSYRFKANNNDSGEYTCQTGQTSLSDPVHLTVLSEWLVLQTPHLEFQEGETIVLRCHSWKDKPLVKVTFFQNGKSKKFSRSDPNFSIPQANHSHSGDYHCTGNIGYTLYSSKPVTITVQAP


Assays:
FcγRIa = target: T2, FcγRIa (human, UniProt P12314 16-292); experiment: SPR (Biacore), captured antibody, FcγR as analyte, relative binding
T2 construct: extracellular domain; Soluble extracellular domain with C-terminal His tag, used as analyte; also called FcgRI; CD64; not shown: His tag at the C terminus

FcγRIIb = target: T1, FcγRIIb; experiment: as above

T2 sequence (P12314 16-292): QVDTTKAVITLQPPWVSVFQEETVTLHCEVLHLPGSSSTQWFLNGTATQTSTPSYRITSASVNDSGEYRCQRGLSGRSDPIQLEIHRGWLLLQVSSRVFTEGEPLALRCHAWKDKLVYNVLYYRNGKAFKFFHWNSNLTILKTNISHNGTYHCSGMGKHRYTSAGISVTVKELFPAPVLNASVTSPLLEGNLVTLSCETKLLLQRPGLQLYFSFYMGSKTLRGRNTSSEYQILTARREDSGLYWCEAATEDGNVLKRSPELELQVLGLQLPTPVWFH

Binder | He/Con_1a (FcγRIa) | He/Con_2b (FcγRIIb)
GpH7-A5/GpH7-B3 variant S324_01G/GpL16-k0 (antibody, human IgG1, kappa, He Ab: mutation in one H chain only; also called He Ab) heavy 1: not shown heavy 2: not shown light: DIVMTQSPLSLPVTPGEPASISCQASESLVHSNRNTYLHWYLQKPGQSPQLLIYKVSNRFSGVPDRFSGSGSGTDFTLKISRVEAEDVGVYYCSQNTHVPPTFGQGTKVEIERTVAAPSVFIFPPSDEQLKSGTASVVCLLNNFYPREAKVQWKVDNALQSGNSQESVTEQDSKDSTYSLSSTLTLSKADYEKHKVYACEVTHQGLSSPVTKSFNRGEC | 98.8 % of GpH7-A5/GpH7-B3/GpL16-k0 | 81.1 % of GpH7-A5/GpH7-B3/GpL16-k0
GpH7-A5/GpH7-B3 variant S324_09D/GpL16-k0 (antibody, human IgG1, kappa, He Ab: mutation in one H chain only; also called He Ab) heavy 1: not shown heavy 2: not shown light: DIVMTQSPLSLPVTPGEPASISCQASESLVHSNRNTYLHWYLQKPGQSPQLLIYKVSNRFSGVPDRFSGSGSGTDFTLKISRVEAEDVGVYYCSQNTHVPPTFGQGTKVEIERTVAAPSVFIFPPSDEQLKSGTASVVCLLNNFYPREAKVQWKVDNALQSGNSQESVTEQDSKDSTYSLSSTLTLSKADYEKHKVYACEVTHQGLSSPVTKSFNRGEC | 104 % of GpH7-A5/GpH7-B3/GpL16-k0 | 85.8 % of GpH7-A5/GpH7-B3/GpL16-k0
GpH7-A5/GpH7-B3 variant S324_16H/GpL16-k0 (antibody, human IgG1, kappa, He Ab: mutation in one H chain only; also called He Ab) heavy 1: not shown heavy 2: not shown light: DIVMTQSPLSLPVTPGEPASISCQASESLVHSNRNTYLHWYLQKPGQSPQLLIYKVSNRFSGVPDRFSGSGSGTDFTLKISRVEAEDVGVYYCSQNTHVPPTFGQGTKVEIERTVAAPSVFIFPPSDEQLKSGTASVVCLLNNFYPREAKVQWKVDNALQSGNSQESVTEQDSKDSTYSLSSTLTLSKADYEKHKVYACEVTHQGLSSPVTKSFNRGEC | 113 % of GpH7-A5/GpH7-B3/GpL16-k0 | 83.5 % of GpH7-A5/GpH7-B3/GpL16-k0
GpH7-A5/GpH7-B3 variant S324_15Y/GpL16-k0 (antibody, human IgG1, kappa, He Ab: mutation in one H chain only; also called He Ab) heavy 1: not shown heavy 2: not shown light: DIVMTQSPLSLPVTPGEPASISCQASESLVHSNRNTYLHWYLQKPGQSPQLLIYKVSNRFSGVPDRFSGSGSGTDFTLKISRVEAEDVGVYYCSQNTHVPPTFGQGTKVEIERTVAAPSVFIFPPSDEQLKSGTASVVCLLNNFYPREAKVQWKVDNALQSGNSQESVTEQDSKDSTYSLSSTLTLSKADYEKHKVYACEVTHQGLSSPVTKSFNRGEC | 114 % of GpH7-A5/GpH7-B3/GpL16-k0 | 88.2 % of GpH7-A5/GpH7-B3/GpL16-k0
GpH7-A5/GpH7-B3 variant S337_03V/GpL16-k0 (antibody, human IgG1, kappa, He Ab: mutation in one H chain only; also called He Ab) heavy 1: not shown heavy 2: not shown light: DIVMTQSPLSLPVTPGEPASISCQASESLVHSNRNTYLHWYLQKPGQSPQLLIYKVSNRFSGVPDRFSGSGSGTDFTLKISRVEAEDVGVYYCSQNTHVPPTFGQGTKVEIERTVAAPSVFIFPPSDEQLKSGTASVVCLLNNFYPREAKVQWKVDNALQSGNSQESVTEQDSKDSTYSLSSTLTLSKADYEKHKVYACEVTHQGLSSPVTKSFNRGEC | 107 % of GpH7-A5/GpH7-B3/GpL16-k0 | 98.9 % of GpH7-A5/GpH7-B3/GpL16-k0
GpH7-A5/GpH7-B3 variant S324_14T/GpL16-k0 (antibody, human IgG1, kappa, He Ab: mutation in one H chain only; also called He Ab) heavy 1: not shown heavy 2: not shown light: DIVMTQSPLSLPVTPGEPASISCQASESLVHSNRNTYLHWYLQKPGQSPQLLIYKVSNRFSGVPDRFSGSGSGTDFTLKISRVEAEDVGVYYCSQNTHVPPTFGQGTKVEIERTVAAPSVFIFPPSDEQLKSGTASVVCLLNNFYPREAKVQWKVDNALQSGNSQESVTEQDSKDSTYSLSSTLTLSKADYEKHKVYACEVTHQGLSSPVTKSFNRGEC | 121 % of GpH7-A5/GpH7-B3/GpL16-k0 | 88.4 % of GpH7-A5/GpH7-B3/GpL16-k0

Next, values leading:

He/Con_1a (FcγRIa) | He/Con_2b (FcγRIIb) | Binder
103 % of GpH7-A5/GpH7-B3/GpL16-k0 | 78.3 % of GpH7-A5/GpH7-B3/GpL16-k0 | GpH7-A5/GpH7-B3 variant S324_02A/GpL16-k0 (antibody, human IgG1, kappa, He Ab: mutation in one H chain only; also called He Ab) heavy 1: not shown heavy 2: not shown light: DIVMTQSPLSLPVTPGEPASISCQASESLVHSNRNTYLHWYLQKPGQSPQLLIYKVSNRFSGVPDRFSGSGSGTDFTLKISRVEAEDVGVYYCSQNTHVPPTFGQGTKVEIERTVAAPSVFIFPPSDEQLKSGTASVVCLLNNFYPREAKVQWKVDNALQSGNSQESVTEQDSKDSTYSLSSTLTLSKADYEKHKVYACEVTHQGLSSPVTKSFNRGEC
107 % of GpH7-A5/GpH7-B3/GpL16-k0 | 92 % of GpH7-A5/GpH7-B3/GpL16-k0 | GpH7-A5/GpH7-B3 variant S337_01G/GpL16-k0 (antibody, human IgG1, kappa, He Ab: mutation in one H chain only; also called He Ab) heavy 1: not shown heavy 2: not shown light: DIVMTQSPLSLPVTPGEPASISCQASESLVHSNRNTYLHWYLQKPGQSPQLLIYKVSNRFSGVPDRFSGSGSGTDFTLKISRVEAEDVGVYYCSQNTHVPPTFGQGTKVEIERTVAAPSVFIFPPSDEQLKSGTASVVCLLNNFYPREAKVQWKVDNALQSGNSQESVTEQDSKDSTYSLSSTLTLSKADYEKHKVYACEVTHQGLSSPVTKSFNRGEC
106 % of GpH7-A5/GpH7-B3/GpL16-k0 | 97.8 % of GpH7-A5/GpH7-B3/GpL16-k0 | GpH7-A5/GpH7-B3 variant S337_04F/GpL16-k0 (antibody, human IgG1, kappa, He Ab: mutation in one H chain only; also called He Ab) heavy 1: not shown heavy 2: not shown light: DIVMTQSPLSLPVTPGEPASISCQASESLVHSNRNTYLHWYLQKPGQSPQLLIYKVSNRFSGVPDRFSGSGSGTDFTLKISRVEAEDVGVYYCSQNTHVPPTFGQGTKVEIERTVAAPSVFIFPPSDEQLKSGTASVVCLLNNFYPREAKVQWKVDNALQSGNSQESVTEQDSKDSTYSLSSTLTLSKADYEKHKVYACEVTHQGLSSPVTKSFNRGEC
102 % of GpH7-A5/GpH7-B3/GpL16-k0 | 68.6 % of GpH7-A5/GpH7-B3/GpL16-k0 | GpH7-A5/GpH7-B3 variant S324_11K/GpL16-k0 (antibody, human IgG1, kappa, He Ab: mutation in one H chain only; also called He Ab) heavy 1: not shown heavy 2: not shown light: DIVMTQSPLSLPVTPGEPASISCQASESLVHSNRNTYLHWYLQKPGQSPQLLIYKVSNRFSGVPDRFSGSGSGTDFTLKISRVEAEDVGVYYCSQNTHVPPTFGQGTKVEIERTVAAPSVFIFPPSDEQLKSGTASVVCLLNNFYPREAKVQWKVDNALQSGNSQESVTEQDSKDSTYSLSSTLTLSKADYEKHKVYACEVTHQGLSSPVTKSFNRGEC
